In patent US20230213525:

T1: TrxA_ElaSub1_CBM-His fusion protein
T1 chain: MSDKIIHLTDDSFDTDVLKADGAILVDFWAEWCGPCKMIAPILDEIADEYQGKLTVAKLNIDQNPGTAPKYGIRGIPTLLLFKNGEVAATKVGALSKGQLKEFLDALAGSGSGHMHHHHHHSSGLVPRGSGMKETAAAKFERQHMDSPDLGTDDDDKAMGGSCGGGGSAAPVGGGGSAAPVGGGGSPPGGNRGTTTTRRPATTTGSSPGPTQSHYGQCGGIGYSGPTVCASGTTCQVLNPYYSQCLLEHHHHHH

T2: ElaSub1_CBM_His chimeric protein (variant 3), separated from the TrxA tag and coupled with Remazol Brilliant Blue
T2 chain: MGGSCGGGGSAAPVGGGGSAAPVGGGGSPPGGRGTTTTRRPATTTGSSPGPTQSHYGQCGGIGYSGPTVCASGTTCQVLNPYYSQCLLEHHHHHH


Experiments:
[1] = target: T1, TrxA_ElaSub1_CBM-His fusion protein
[2] = target: T2, ElaSub1_CBM_His chimeric protein …

Protein	separation of the chimeric construct from the TrxA tag (SDS-PAGE) [1]	colour of the supernatant (dye release from the filter strip carrying the chimeric peptide, 30 min, 0.05 U/ml HLE) [2]
recombinant expressed bovine enterokinase from Merck Millipore (protein) IVGGSDSREGAWPWVVALYFDDQQVCGASLVSRDWLVSAAHCVYGRNMEPSKWKAVLGLHMASNLTSPQIETRLIDQIVINPHYNKRRKNNDIAMMHLEMKVNYTDYIQPICLPEENQVFPPGRICSIAGWGALIYQGSTADVLQEADVPLLSNEKCQQQMPEYNITENMVCAGYEAGGVDSCQGDSGGPLMCQENNRWLLAGVTSFGYQCALPNRPGVYARVPRFTEWIQSFLH	The separation of the desired chimeric construct from the TrxA-Tag was verified by SDS-PAGE.	
human leukocyte elastase (HLE) (protein) IVGGRRARPHAWPFMVSLQLRGGHFCGATLIAPNFVMSAAHCVANVNVRAVRVVLGAHNLSRREPTRQVFAVQRIFENGYDPVNLLNDIVILQLNGSATINANVQVAQLPAQGRRLGNGVQCLAMGWGLLGRNRGIASVLQELNVTVVTSLCRRSNVCTLVRGRQAGVCFGDSGSPLVCNGLIHGIASFVRGGCASGLYPDAFAPVAQFVNWIDSIIQ		Initially non coloured samples (clear supernatant) that exhibit elastase activity developed a blue colour
